Key:
[1] = target: Rab6a GTPase (rat hepatocytes) (rat (endogenous in primary hepatocytes)) (UniProt Q9WVB1); test: proximity ligation; Duolink in situ PLA in control VA-13 cells and hepatocytes from control rats; mouse anti-giantin + rabbit anti-Rab6a, or mouse anti-Rab6a + rabbit anti-NMIIA-P-S1943; cells with more than one red spot counted
[2] = target: Rab6a GTPase (human (endogenous in VA-13, HepG2-derived)) (UniProt P20340); test: as above
[3] = target: Rab6a GTPase (rat hepatocytes) (rat (endogenous in primary hepatocytes)) (UniProt Q9WVB1); test: proximity ligation; Duolink in situ PLA in VA-13 cells treated with 35 mM EtOH for 72 h and hepatocytes from EtOH-fed rats; mouse anti-Rab6a + rabbit anti-NMIIA-P-S1943; cells with more than one red spot counted

Chain of Rab6a GTPase (rat hepatocytes) (rat (endogenous in primary hepatocytes)) (Q9WVB1 whole entry): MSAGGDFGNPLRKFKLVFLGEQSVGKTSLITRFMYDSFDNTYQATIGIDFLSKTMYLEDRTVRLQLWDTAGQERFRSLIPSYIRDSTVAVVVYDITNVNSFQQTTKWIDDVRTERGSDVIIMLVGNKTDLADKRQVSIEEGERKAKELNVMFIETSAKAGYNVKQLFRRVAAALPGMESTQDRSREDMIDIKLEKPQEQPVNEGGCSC
Chain of Rab6a GTPase (human (endogenous in VA-13, HepG2-derived)) (P20340 whole entry): as the sequence (Q9WVB1 whole entry) above, with A3T, N202S counted along it
Chain of non-muscle Myosin IIA heavy chain phosphorylated at S1943 (rat hepatocytes) (Q62812 2-1961): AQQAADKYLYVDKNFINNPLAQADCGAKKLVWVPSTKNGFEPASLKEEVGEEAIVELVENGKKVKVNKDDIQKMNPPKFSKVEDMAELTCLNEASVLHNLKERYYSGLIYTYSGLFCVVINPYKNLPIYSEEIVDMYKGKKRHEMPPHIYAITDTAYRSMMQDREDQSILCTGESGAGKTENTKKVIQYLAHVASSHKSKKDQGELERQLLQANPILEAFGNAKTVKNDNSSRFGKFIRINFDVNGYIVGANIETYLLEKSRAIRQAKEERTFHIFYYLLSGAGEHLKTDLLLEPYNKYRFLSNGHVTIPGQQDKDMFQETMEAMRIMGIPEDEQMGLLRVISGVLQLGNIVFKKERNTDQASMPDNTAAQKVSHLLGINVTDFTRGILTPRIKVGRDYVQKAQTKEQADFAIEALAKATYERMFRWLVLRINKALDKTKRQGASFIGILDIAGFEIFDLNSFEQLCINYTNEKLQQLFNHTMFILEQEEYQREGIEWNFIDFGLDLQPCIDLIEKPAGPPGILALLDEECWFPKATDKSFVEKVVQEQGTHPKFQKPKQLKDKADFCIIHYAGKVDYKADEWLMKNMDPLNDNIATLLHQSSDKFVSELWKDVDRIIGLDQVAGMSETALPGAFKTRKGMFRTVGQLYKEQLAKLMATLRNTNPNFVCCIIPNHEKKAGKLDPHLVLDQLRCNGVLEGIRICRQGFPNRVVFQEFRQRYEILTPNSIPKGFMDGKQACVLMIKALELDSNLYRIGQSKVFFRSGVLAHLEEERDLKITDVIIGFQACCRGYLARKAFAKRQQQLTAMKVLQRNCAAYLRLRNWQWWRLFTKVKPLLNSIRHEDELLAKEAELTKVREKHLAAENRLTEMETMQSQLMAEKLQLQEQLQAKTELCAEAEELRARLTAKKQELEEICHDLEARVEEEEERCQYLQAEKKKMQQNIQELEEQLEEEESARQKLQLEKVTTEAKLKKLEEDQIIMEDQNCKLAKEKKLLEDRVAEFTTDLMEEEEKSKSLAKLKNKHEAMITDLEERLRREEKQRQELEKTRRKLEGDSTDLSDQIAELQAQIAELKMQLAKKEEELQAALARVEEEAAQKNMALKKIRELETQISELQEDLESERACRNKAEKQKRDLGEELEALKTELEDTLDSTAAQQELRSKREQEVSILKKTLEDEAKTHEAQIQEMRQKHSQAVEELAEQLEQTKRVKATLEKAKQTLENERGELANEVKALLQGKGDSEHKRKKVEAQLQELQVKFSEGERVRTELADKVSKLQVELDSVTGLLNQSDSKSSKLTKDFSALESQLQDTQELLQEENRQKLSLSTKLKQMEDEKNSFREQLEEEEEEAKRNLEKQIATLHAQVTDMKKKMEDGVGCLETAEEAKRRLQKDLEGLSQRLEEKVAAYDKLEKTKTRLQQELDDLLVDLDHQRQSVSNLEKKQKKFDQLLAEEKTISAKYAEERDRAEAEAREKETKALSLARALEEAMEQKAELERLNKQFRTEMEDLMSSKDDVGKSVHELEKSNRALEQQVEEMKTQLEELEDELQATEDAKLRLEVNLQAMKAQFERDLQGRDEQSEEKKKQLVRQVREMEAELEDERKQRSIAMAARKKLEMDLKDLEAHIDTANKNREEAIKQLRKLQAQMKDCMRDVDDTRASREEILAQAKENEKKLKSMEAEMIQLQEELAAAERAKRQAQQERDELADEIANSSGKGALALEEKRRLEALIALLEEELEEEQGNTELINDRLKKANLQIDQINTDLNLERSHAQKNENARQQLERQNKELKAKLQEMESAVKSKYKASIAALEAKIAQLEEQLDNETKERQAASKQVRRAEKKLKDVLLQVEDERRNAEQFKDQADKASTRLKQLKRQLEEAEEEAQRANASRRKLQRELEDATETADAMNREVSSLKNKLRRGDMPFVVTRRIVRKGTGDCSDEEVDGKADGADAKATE

giantin (rat hepatocytes) (natural protein)
percent of cells with more than one PLA spot [1]: 83%

giantin, Q14789 1-3259
percent of cells with more than one PLA spot [2]: 78%

non-muscle Myosin IIA heavy chain phosphorylated at S1943 (rat hepatocytes) (from UniProt Q62812 1-1961) (natural protein)
percent of cells with PLA-positive puncta [3]: 86%

From PMC4989220
